According to patent US8728787B2, “Fungal laccases and uses thereof” (Academia Sinica, priority 2010, dated 2014):

How the values were obtained:
[1] = pH stability: residual activity after pre-incubation at various pH; format: physicochemical
Protocol: (§1) The effect of pH on the laccase activity was investigated at a pH range of 2.5-6.0. Four buffer systems were used in this study: 50 mM glycine-HCl buffer (pH 2.5), 50 mM citric acid buffer (pH 3.0-5.5), 50 mM sodium phosphate buffer (pH 6.0-8.0), and 50 mM glycine-NaOH buffer (pH 9.0-10). To determine the protein stability of laccase at a wide range of pH conditions, the enzyme (0.1 mg/mL in each reaction) was pre-incubated at pH 3.0-10 at 25° C. for 0-5 days and then the residual enzyme activity was determined.
(§2) The effect of pH on laccase activity was investigated at pH 2.0-6.0, using a glycine-HCl buffer (pH 2.0-2.5) or a citric acid buffer (pH 2.5-6.0). To determine protein stability in different pH conditions, the enzyme was pre-incubated at pH 2.5-4.5 at 25° C. for 0-2 h and the residual enzyme activity was determined by the standard enzymatic assay.

[2] = Thermal denaturation by differential scanning calorimetry (DSC); format: physicochemical; details: 10 mM sodium phosphate buffer (pH 6.0)
Protocol: Thermal denaturation of laccase was determined by differential scanning calorimetry (DSC) using a Nano Differential Scanning calorimeter (N-DSC III) (TA Instruments, New Castle, Del.) at a heating rate of 1° C./min under a temperature from 30 to 95° C. and excess pressure of 3.0 atm. The protein concentration was 0.55 mg/ml in 10 mM sodium phosphate buffer (pH 6.0). Baseline corrections were performed and smoothed by subtracting a buffer thermogram. The data were then analyzed using the Launch NanoAnalyze Software (TA Instruments, New Castle, Del.), assuming a two-state unfolding model. See Pace et al., The Protein Structure: A Practical Approach; Creighton T. E., Ed.: IRL Press; Oxford U.K., pp. 311-330; 1989.

[3] = Laccase stability on extended incubation with ethanol or methanol; format: physicochemical; details: room temperature, pH 6.0
Protocol: To examine the effect of ethanol on Cerrena sp. WR1 laccase stability, the enzyme was incubated in a 50 mM sodium phosphate buffer (pH 6.0) containing 1%, 10%, or 25% ethanol at room temperature for up to 52 days and the residual enzyme activity was measured at different time points during incubation. A T. versicolor laccase (LccTv) was used as a reference enzyme. […] Differently, Lcc3 retained around 90% activity after being incubated with 25% ethanol for 10 days and retained approximately 50% enzymatic activity after a 40-day incubation period. This enzyme also retained about 50% enzymatic activity after a 45-day incubation period with 10% ethanol and a 40-day incubation without ethanol.
The laccase stability after incubation with methanol or ethanol for an extended period was further investigated. […] The enzyme activity of the Lentinus sp. laccase maintained as 95% in 25% ethanol while that of the reference laccase reduced to 41%.

[4] = Effect of organic solvents on laccase activity; format: biochemical; details: ABTS
Protocol: To test the effects of various organic solvents on laccase activity, the enzymatic assay described above was carried out in the presence of one of the organic solvents shown in Table 1 below at various concentrations (1%, 10% and 25%). A T. versicolor (Fluka) laccase was used as a reference enzyme in this study. The enzyme concentration used in this study was 0.2 mg/ml. […] Further, more than 80% laccase activity remained in the presence of 10% acetonitrile or dimethyl sulfoxide. […]

[5] = pH 3
Protocol: Lignin degradation reaction was carried out by mixing a crude laccase broth (containing 100 U enzyme) with 50 ml reaction buffer (50 mM citric acid solution; pH 3.0) containing 100 mg smashed rice straw materials. The mixture was incubated at 30-80° C. for 20-60 min. Sodium azide was added to the mixture at a final concentration of 1 mM to stop the enzymatic reaction. The processed rice straw was collected by filtration and dried at 60° C. The lignin contents in the rice straw before and after treatment were determined following the method described in kappa number of ISO 302:2004 (International Organization for Standardization).
(§3) The lignin degradation reaction and the dye decoloration reaction were carried out following the methods described in Example 1 above. […] See FIG. 9, pane A. The lignin degradation efficiencies were 22%-25% at 40-50° C. for 40 min and 32% at 40° C. for 60 min.

[6] = Guaiacol oxidation (laccase kinetics, optimum temperature and pH); format: biochemical; details: guaiacol as substrate
Protocol: The effect of temperature on laccase activity was studied using the standard enzymatic activity assay described above under various reaction temperatures (i.e., 20-80° C.). For thermal stability study, the enzyme was pre-incubated in a 50 mM citric acid buffer (pH 3.0) at 50-80° C. for 0-180 min and the residual enzymatic activity was then determined.
as §1
Kinetic parameters Km and Vmax were determined as follows. […] The oxidation reactions of guaiacol and 2,6-DMP were monitored by determining OD436 values (ε=6,400 M^−1cm^−1) and OD468 values (ε=49,600 M^−1 cm^−1), respectively. The kinetic parameters were determined by nonlinear regression analysis (ENZFITTER software program, Elsevier-Biosoft, Cambridge, UK) using the Michaelis-Menten model.
To determine the effect of temperature on the enzyme activity, a standard enzymatic activity assay was performed under various temperatures (i.e., 30-90° C.). For thermal stability study, laccase was pre-incubated in a 50 mM citric acid buffer (pH 3.0) at 30-80° C. for 10-40 min and the residual enzymatic activity was then determined by the standard assay. See Example 1 above. Values of t1/2 were determined accordingly.
as §2
Kinetic parameters were determined following conventional methods. See also Example 1 above.

[7] = RBBR dye decoloration; details: 0.02% RBBR, 8 U enzyme, 20° C., 1 h, pH 3.0
Protocol: Dye decoloration reaction was performed by mixing a partially purified laccase broth (containing 8 U enzyme) with a 1 ml reaction buffer (50 mM citric acid solution; pH 3.0) containing 0.02% RBBR (Sigma). The mixture was incubated at 20° C. for 1 h. Dye decoloration was determined by monitoring the change in absorbance at 595 nm and the dye decoloration efficiency (%) was defined as the relative amount of dye reduced after the treatment.
as §3

B1: Lcc3: laccase purified from Cerrena sp. WR1, GenBank accession no. GQ899203; SEQ ID NO:3 mature, 9 precursor (protein)
chain: AIGPVADLHITDANVSPDGFTRPAVLAGGTFPGPLITGKQGDNFQINVIDELTDATMLKSTSIHWHGIFQKGTNWADGPSFVNQCPITTGNSFLYDFSVPDQTGTYWYHSHLSTQYCDGLRGALVIYDDNDPHKDLYDVDDETTVITLADWYHTQARLITGVPVSDATLINGLGRYLNGPTDAPLAVITVDQGKRYRFRLVSISCDPNFVFSIDNHSMTVIEVDAVNSQPLVVDSIQIFAAQRYSFILNANQSVGNYWIRANPNLGNTGFTNGINSAILRYNGAPVAEPNTTQTASTNPLNEVNLHPLVPTPVPGTPQPGGVDVVQNLVLGFSGGKFTINGVAFSPPTVPVLLQILSGTTTAQDLLPTGSIIELPLGKTVELTLAAGVLGGPHPFHLHGHTFHVVRSAGQTTPNYVDPILRDTVNTGAAGDNVTIRFTTDNPGPWFLHCHIDWHLEAGFAVVFAEGLNQTNAANPTPDAWNNLCDLYNALPAGDQ
modifications: Cerrena sp
[1]; pH 3.0-5.0
  stability at an acidic environment: less stable
[1]; pH 6-10, 63 hr incubation, 25° C.
  activity maintained: about 100%
[2]
  midpoint temperature (Tm): 73.95 °C
[3]; 1% ethanol, 52-day incubation
  activity retained: about 61%
[3]; 10% ethanol, 45-day incubation
  activity retained: approximately 50%
[3]; 25% ethanol, 40-day incubation
  activity retained: approximately 50%
[3]; 25% ethanol, 10 days
  activity retained: around 90%
[3]; without ethanol, 40-day incubation
  activity retained: approximately 50%
[4]; Acetonitrile 1%, pH 3.0, 30° C.
  Relative activity: 92.7 ± 2.5%
[4]; Acetonitrile 25%, pH 3.0, 30° C.
  Relative activity: 77.5 ± 3.2%
[4]; Dimethyl sulfoxide 1%, pH 3.0, 30° C.
  Relative activity: 93.5 ± 1.4%
[4]; Dimethyl sulfoxide 25%, pH 3.0, 30° C.
  Relative activity: 55.8 ± 1.7%
[4]; Ethanol 1%, pH 3.0, 30° C.
  Relative activity: 94.5 ± 1.8%
[4]; Ethanol 10%, pH 3.0, 30° C.
  Relative activity: 93.9 ± 4.0%
[4]; Ethanol 25%, pH 3.0, 30° C.
  Relative activity: 84.8 ± 3.3%
[4]; Methanol 1%, 50 mM citric acid buffer pH 3.0, 30° C.
  Relative activity: 93.0 ± 1.5%
[4]; Methanol 10%, pH 3.0, 30° C.
  Relative activity: 85.5 ± 0.9%
[4]; N,N-dimethylformamide 1%, pH 3.0, 30° C.
  Relative activity: 100 ± 0.9%
[4]; N,N-dimethylformamide 10%, pH 3.0, 30° C.
  Relative activity: 98.4 ± 0.5%
[5]
  highest lignin degradation efficiency per 100 U: around 22.9%
[6]
  optimal temperature: 70 °C
  pH of maximal activity: 4.5
[6]; at pH 4.5
  Optimum temperature: 70 (at pH 4.5) ° C.
[6]; optimum temperature and pH
  Specific activity: 189.7 U/mg
[7]
  decoloration efficiency against RBBR: 70.1%
